Experiment: yeast display, Sf9 membrane polyspecificity reagent, FACS + sequencing; frameworks hold sequencing errors
In short: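 Using colony PCR, genes from sorted yeast display clones were amplified, then sequenced on MiSeq at 2 × 250 and filtered by CDR length. The clones had been stained with 10% biotinylated, detergent-solubilized Sf9 membrane reagent for 1 hour at 4 °C and sorted by FACS into low and high (top ~1%) gates on anti-HA and streptavidin fluorescence. Polyreactivity labels come from the gate of origin.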

Row | Sequence | polyreactivity (PSR sort gate)
1 | QVQLVESGGGLVQAGGSLRLTCAASGRIFKYYAMGWYRQAPGKEREFVADISRRGGSTYYADSVKGRFTISRDNAKNTVYLQMNSLKPEDTAVYYCAAQSGYIMDYWGQGTQVTVSS | high polyreactivity
2 | QVQLVESGGGLVQAGGSLRLTCAASGRIFRVNGMGWYRQAPWKERDLVAPIRRSGGSTYYADSVKGRFTISRDNSKNNVYLQMKSLKPEDTAVYYCAAPVLLSSYTRYDSWGQGTQVTVSS | high polyreactivity
3 | QVQLVESGGGLVQAGGSLRLTCAASGRIFWINDMVWNRQAPGKESELVAAIRSIGGSTYYADSVKGRFRISRDNAKNTVYLQMNSLKPEDTSVYYCAAKSSPKFRGRYYYWGQGTQVTVSS | low polyreactivity
4 | QVQLVESGGGLVQAGGSLRLTCAASGRIFWRNAMGWYRQAPGKVREFVAAITGTGGSTYYADSVKGRFTISRDTAKNTVYLQMNSLKPEDTAVYYCAARWDYSYRYRLYYWGQGTQVTVSS | high polyreactivity
5 | QVQLVESGGGLVQAGGSLRLTCAASGRTFAIYAMGWYRQAPRKEREFFDAISWSGGDTYYADSVKGRFTISRDNAKNTVYLQMNSLKAEDTAVYYCAARYIDYEGRDLQYELDYWGQGTQVSVSS | low polyreactivity
6 | QVQLVESGGGLVQAGGSLRLTCAASGRTFAWYAMGWYRQAPGKERDLVAAISSAGSTYYADSVKGRFTISRDNAKNTVYLQMNSLKPEDTAVYYCAASFGRYTSGTYYYWGQGTQVTVSS | high polyreactivity
7 | QVQLVESGGGLVQAGGSLRLTCAASGRTFDYYAMGWYRQAPGKERELVAAIRGSGGSTYYADSVKGRFTISRDNAKNTVYLQMNSLKPEDTAVYYCATDPPYFRTPWEYDYWGQGTQVTVSS | low polyreactivity
8 | QVQLVESGGGLVQAGGSLRLTCAASGRTFGRYAMGWYRQAPGKEMDLVAAIRYTGGSTYADSVKGRFTISRDNAKNTVYLQMNRLKPEETAVYYCNRCGAFNTRNEITRYGYWGQGTQVTVSS | low polyreactivity
9 | QVQLVESGGGLVQAGGSLRLTCAASGRTFGTYVMGWYIQAPGKERELVATISRRGGTTYYADSVKGRFTISRDNAKNTVYLQMNSLKPVDNAVYYCAATYFGTRYDYWGQGTQVTVSS | high polyreactivity
10 | QVQLVESGGGLVQAGGSLRLTCAASGRTFLLYAMGWYRQAPGKERELVAAITSRSGRTYYADSVKGRFTISRDNAKNTVYLQMNSLKPEDTAVYYCAAQGYAPQEYEYWGQGTQVTVSS | high polyreactivity
11 | QVQLVESGGGLVQAGGSLRLTCAASGRTFNDYAMGWYRQAPGKEMELVAGITWRGGSTYYADSVKGRFTISRHNAKNTVYLQMNSLKPEDTAVYYCAVKRPWRKMGYWGQGTQVTVSS | high polyreactivity
12 | QVQLVESGGGLVQAGGSLRLTCAASGRTFQYYAMGWYRQAPGKERELVAAISQDGGSTYYADSVKGRFTISRDNSKNSVYLQMNSLKPEDTAVYYCAARVDEYAYYALDDYWGQGTQVTVSS | low polyreactivity
13 | QVQLVESGGGLVQAGGSLRLTCAASGRTFSYYTIGWYRQAPGKELELVADITGSGGSTYYADSVKGRFTISRDNAKNTVYLQINSLKPEDTAVYYCSAGWPYVYYTWYWTMDYWGQGTQVTVSS | high polyreactivity
14 | QVQLVESGGGLVQAGGSLRLTCAASGRTFTIYAMGWYRQAPGKERELVAAISSSSGSTYYADSVKGRFPISRDNAKNTVYLQKNSLKPEDTAVYYCAVKLSGQAAQRRYDYWGQGTQVTVSS | high polyreactivity
15 | QVQLVESGGGLVQAGGSLRLTCAASGRTFTRYAMGWYRQAPGKERELVAAISGGGGSTYYADSVKGRFTISRDNAKNTVYLQMNSLKPEDTAVYYCNAAARGSSFDYWGQGTQVTVSS | low polyreactivity
16 | QVQLVESGGGLVQAGGSLRLTCAASGRTFWTNAMGWYRQAPGKVRELVAAIRNSGGRTYYADSVKGRFTISRDNAKNTVYLQMNSLKPEDTAVYYCNADFWYSYGYDYWGQGTQVTVSS | low polyreactivity
17 | QVQLVESGGGLVQAGGSLRLTCAASGRTFYLYAMGWYRQAPGKERELVAAITTSGGSTYYADSVKGRFTFSRDNAKNTVYLQMNSLKPEDTAVSYCNTDLSSTKFDYWGQGTQVTVSS | low polyreactivity
18 | QVQLVESGGGLVQAGGSLRLTCAASGRTYRKNAMGWYRQAPGKETELVAAITGSSGTTYYADSVKARFTISRDNAKISVYFQMNSLKPEDTAVYYCATTVCDPGRRYYYWGLGTQVTVSS | high polyreactivity
19 | QVQLVESGGGLVQAGGSLRLTCAASGSIFGDYAMGWYRQAPGKEREFVAGITRRGGRTYYADSVKGRFTISRDNAKNTVYLQMNSLKPEDTAVYYCNAVYSSSLRSKYDYWGQGTQVTVSS | high polyreactivity
20 | QVQLVESGGGLVQAGGSLRLTCAASGSIFGFNAMGWYRQAPGKERELGAAISSGSTYYADSVKGRFTISRDNAKNTVYLQINSLKPEDTAVYYCNARSNRGRFEYWGQGTQVTESS | low polyreactivity
21 | QVQLVESGGGLVQAGGSLRLTCAASGSIFLYYAMGWYRQAPGKERELVAGINRVGSTNYADSVKGRFTISRDNAKNTVNLQMNSLKPEDTAVYYCNKRATRSRRRGYWGQGTQVTVSS | low polyreactivity
22 | QVQLVESGGGLVQAGGSLRLTCAASGSIFNRYSMGWYRQATGKERELVAVIRWRDGSTYYADSVKGRFTISRDNEKNTVYLQMNSLKPEDTAVYYCAAVYWGEEYEYWGQGTQVTVSS | low polyreactivity

Row | Sequence | polyreactivity (PSR sort gate)
23 | QVQLVESGGGLVQAGGSLRLTCAASGSIFPYYAMGWYRQAPGKEREFVAVISRRGGSTYYADSVKGRFTISRDNAKNTVYLQMNSLKPEDTAVYYCNARGYNLLDDWGQGTQVTVSS | high polyreactivity
24 | QVQLVESGGGLVQAGGSLRLTCAASGSIFRVNAMGWYRQAPGKERELVAAISSGGSTHYADSVKGRFTMSRDNAKNTVYLLMNSLKPEDTAVYYCAVRGERRYIYDYWGQGTQVTVSS | high polyreactivity
25 | QVQLVESGGGLVQAGGSLRLTCAASGSIFRWNAMGWYRQAPGKERELVASITSGGSTYYADSVKGRFTISRDNAKNTVYLQMISLKPEDTAVYYCAAARYPGRKFDYWGQGTQVTVSS | high polyreactivity
26 | QVQLVESGGGLVQAGGSLRLTCAASGSIFTYYVMGWYRQAPGKERELVATITGSSGSTYYADSVKGRFTISRDNAKNTVFLQMNSLKPEDTAVYYCATYGTLVYYYYPDMEYWGQGTQVTVSS | low polyreactivity
27 | QVQLVESGGGLVQAGGSLRLTCAASGSIFVRNSMGWYRQAPGKERELVAAIIRSGGSTYYADSVKGRFTISRDNAKNTVYLQMNSLKPEDTAVYYCNALIRYNRYTGRDYWGQGTQVTVSS | high polyreactivity
28 | QVQLVESGGGLVQAGGSLRLTCAASGSIFYLNAMGWYRQAPGKERELVATISNGGSTNYADSVKGRFTISRDNAKNTVYLQMYSLKPEDTAVYYCAAASGGTVVGEGDYWGLGTQVTVSS | low polyreactivity
29 | QVQLVESGGGLVQAGGSLRLTCAASGSIFYLYAMGWYRQAPGKETELVAAISRTGSTYADSVKGRFTISRDNAKKTVYLQMNSLKPEDTAVYYCAAEYRYYWYGTMNYWGQGTQVTVSS | low polyreactivity
30 | QVQLVESGGGLVQAGGSLRLTCAASGSIFYPYAMGWYRQAPGKERELVAAISWSGGSTYYADSVKGRFTISRDNAKNTVYLQMKSLKPEDTAVYYCNAVGHWFYSSGRYYGDDYWGQGTQVTVSS | high polyreactivity
31 | QVQLVESGGGLVQAGGSLRLTCAASGSIIWAYAKGWYRQAPGKERELVAAISSGGSTYYADSVKGRFTISRDNAKNIVYLQMNCLKPEDTPVFYCAASWSRRYYYWGQGTQVTVSS | high polyreactivity
32 | QVQLVESGGGLVQAGGSLRLTCAASGSISFGYAMGWYRQAPGKERELVAAITWSTARTYYADSVKGRFTISRDNAKNTVYLQMNSLKPEDTAVYYCAKGGYWGQGTQVTVSS | high polyreactivity
33 | QVQLVESGGGLVQAGGSLRLTCAASGSIVWYAMGSYRQATGKEREVVAAISRRGGSTYYADSVKGRFTISRDNAKNTVYLQSKSLKSEDTAVYYCADRPAREEYDYWGQGTQVTVSS | high polyreactivity
34 | QVQLVESGGGLVQAGGSLRLTCAASGSTFADYAMGWYRQAPGKERELVAAITGDGGNTYYADSVKGRFTISRDNAKNTVYLQMNSLKPEDTAVYYCAAEHETGAYYYWGLGTQVTVSS | high polyreactivity
35 | QVQLVESGGGLVQAGGSLRLTCAASGSTFDTYAMGWYRQAPGKERELVAAISGSGVRTYYADSVKGRFTISRDNAKNTVYLQMNSLKPEDTAVYYCAARYPRRCGEYGYWGQGTQVTVSS | high polyreactivity
36 | QVQLVESGGGLVQAGGSLRLTCAASGSTFKQNVMGWYRQAPGKERELVAAITSGGSTNYADSVKGRFTISRDNAKNTVYLQMNSLKPEDTAVYYCNKDTSGIYLDDYWGQGTQVTVSS | low polyreactivity
37 | QVQLVESGGGLVQAGGSLRLTCAASGSTFPRYAMGWYRQAPGKEREFVAVIWSGGSTYYADSVKGRFTISRDNAKNTVYLQMNSLKPEDSAVYYCAAEYHTLSKYSGYATHDYWGQGTQVTVSS | low polyreactivity
38 | QVQLVESGGGLVQAGGSLRLTCAASGSTFSKNAMGWYRQATGNERELVASISSSVGSTYYSDSVKGRFTISRDNAKNTVYLQMNSLKPEDTAVYYCATRRGRGYYYWGQGTQVTVSS | high polyreactivity
39 | QVQLVESGGGLVQAGGSLRLTCAASGSTFWAYAMGWYRQAPGKERELVAAITTGGGRTFYADSVKGRFTISRDNAKNTVYLQMNSLIPEDTAVYYCAAVSQSYRMYYWGQGTQVTVSS | low polyreactivity
40 | QVQLVESGGGLVQAGGSLRLTCAASGSTFYIYAMGWDRQAPGKEAEFVAAIDFSGSSTYADSVKGRFTISRDNAKNTVYLQMNSLKPEDTAVYYCAAYQIYQYDGPYDYWGEGTQVTVSS | low polyreactivity
41 | QVQLVESGGGLVQAGGSLRLTCAASGSTFYPYAMGWYRQAPGKERELVAAISSGGSTYYADSVKGRFTISRDNAKNSVYLQMNSLKPEDTAVYYCAADFYYAYYWGQGTQVTVSS | low polyreactivity
42 | QVQLVESGGGLVQAGGSLRLTCAASGSTLYSYAMGWYRPAPGKERELVAAISKSGGRTYYADSVKGRFTISRDNAKISVYLEMNSLKPEDTAVYYCAGREKYTPALEVEYWGQGTQVTVSS | high polyreactivity
43 | QVQLVESGGGLVQAGGSLRLTCAASGSTYLNYAMGWYRQAPGKERELVAAITSGGRTYYADSVKGRFTISRDNAKNTVYLQMNSLKPEDTAVYYCAKVSYRYGLYDYWGQGTQVTVSS | high polyreactivity

From the nanobody polyreactivity screen of Harvey et al. (2022)
